Where “and” joins values, the source holds several entries; their conditions need not be identical. Equal values may be shown once. One block for each molecule: values may come before it.
Key:
[1] = target: CXCL8 receptors on bovine peripheral blood neutrophils; experiment: biotCXCL8 binding inhibition on bovine neutrophils; 10 ng/ml unlabeled CXCL8 2 h at 4 C, wash, then 1 ug/ml biotCXCL8; ELISA read-out
[2] = target: CXCL8 receptors on bovine peripheral blood neutrophils; experiment: competition with 20 pM 125I-CXCL8 on 10^6 bovine neutrophils, 45 min on ice
[3] = target: CXCL8 receptors on bovine peripheral blood neutrophils; experiment: preliminary radioligand binding on bovine neutrophils
[4] = target: CXCL8 receptors on bovine peripheral blood neutrophils; experiment: biotCXCL8 (1000 ng/ml) on medium-treated bovine neutrophils; alkaline phosphatase-streptavidin and ABTS
[5] = target: CXCL8 receptors on bovine peripheral blood neutrophils; experiment: cell-based or functional assay
[6] = target: CXCL8 receptors on bovine peripheral blood neutrophils; experiment: biotCXCL8 binding inhibition on bovine neutrophils; 10 ng/ml analogue 2 h at 4 C, wash, then 1 ug/ml biotCXCL8; ELISA read-out
[7] = target: CXCL8 receptors on bovine peripheral blood neutrophils; experiment: competition with 20 pM 125I-CXCL8 on bovine neutrophils; reference wildtype CXCL8

percent of biotCXCL8 binding inhibited [1]: 30%
IC50 [2]: 0.12 nM
Molecule: CXCL8 (wild type, unlabeled) (from UniProt P79255 23-101) (ligand)

concentration that just saturated the high affinity receptors [3]: 20 pM
Molecule: 125I-CXCL8 (from UniProt P79255 23-101) (ligand)

More lines, now with the values behind:

Molecule: biotinylated CXCL8 (from UniProt P79255 23-101) (ligand)
OD405 [4]: 0.5 to 0.6 OD405

B1: bovine CXCL8(3-74)K11R/G31P (ligand)
chain: TELRCQCIRTHSTPFHPKFIKELRVIESPPHCENSEIIVKLTNGNEVCLNPKEKWVQKVVQVFVKRAEKQDP
IC50, inhibition of bovine neutrophil chemotaxis to 1 ug/ml (129 nM) CXCL8 [5]: 0.11 nM
concentration for complete blocking of bovine neutrophil chemotaxis to 1 ug/ml CXCL8 [5]: 10 nM
concentration for complete inhibition of bovine neutrophil chemotaxis to human CXCL5, CXCL1 or CXCL8 [5]: 3 nM and 20 nM
concentration reducing by 50% the bovine neutrophil chemotactic response to 10 ng/ml human CXCL8 [5]: 0.04 nM
concentration reducing to 50% the bovine neutrophil chemotactic response to 1 ng/ml human CXCL1 [5]: 0.26 nM
concentration reducing to 50% the bovine neutrophil chemotactic response to 1 ng/ml human CXCL5 [5]: 0.06 nM
reduction of the chemotactic response of bovine neutrophils to 1 ug/ml (129 nM) CXCL8 by 12.9 pM analogue [5]: 33%
percent of subsequent biotCXCL8 binding blocked [6]: 95%
fold more effective than wildtype CXCL8 in inhibiting 125I-CXCL8 binding [7]: 100 fold
IC50 [2]: 0.004 nM

B2: bovine CXCL8(3-74)K11R/P32G (ligand)
chain: TELRCQCIRTHSTPFHPKFIKELRVIESGGHCENSEIIVKLTNGNEVCLNPKEKWVQKVVQVFVKRAEKQDP
percent of CXCL8 binding blocked [6]: 48%

Source: patent US20070021593A1
